How the values were obtained:
[1] = target: T1, SiaP (Photobacterium profundum, UniProt Q6LPV9); assay: isothermal titration calorimetry; assay type: binding; conditions: 50 mM Tris-HCl pH 8.0, 150 mM NaCl, 25 °C; single-site fit
T1 construct: gene SMB20295; native signal peptide (residues 1-22) removed, apparently untagged (pET30deltaSE, ion-exchange and hydrophobic purification), E. coli BL21(DE3)
Description: isothermal titration calorimetry on SiaP | We confirmed that SiaP binds sialic acid with nanomolar affinity

[2] = target: SiaQM complex with SiaM R292A (Photobacterium profundum)
[3] = target: SiaQM transporter complex from Photobacterium profundum (Photobacterium profundum)

Q: Which Kd [1] does the source give for `CC(=O)N[C@H]1[C@H]([C@H](O)[C@H](O)CO)OC(O)(C(=O)O)C[C@@H]1O` (stereo partly drawn) [Neu5Ac] here?
A: 561 nM

Q: “SiaP (substrate-binding P-subunit of the sialic acid TRAP transporter from Photobacterium profundum) (natural protein)” was tested. Which reduction of [3H]-Neu5Ac transport activity in proteoliposomes against wildtype SiaPQM [2] did it give?
A: 87 % reduction

Q: How did the reduction of [3H]-Neu5Ac transport activity in proteoliposomes against wildtype SiaPQM [3] turn out when SiaP D59A (natural protein) was run?
A: 77 % reduction
